Target: TSG101 (UniProt Q99816)
Test: cell-based or functional assay

UniProt Q99816, sequence (Q99816 2-390 limits assumed): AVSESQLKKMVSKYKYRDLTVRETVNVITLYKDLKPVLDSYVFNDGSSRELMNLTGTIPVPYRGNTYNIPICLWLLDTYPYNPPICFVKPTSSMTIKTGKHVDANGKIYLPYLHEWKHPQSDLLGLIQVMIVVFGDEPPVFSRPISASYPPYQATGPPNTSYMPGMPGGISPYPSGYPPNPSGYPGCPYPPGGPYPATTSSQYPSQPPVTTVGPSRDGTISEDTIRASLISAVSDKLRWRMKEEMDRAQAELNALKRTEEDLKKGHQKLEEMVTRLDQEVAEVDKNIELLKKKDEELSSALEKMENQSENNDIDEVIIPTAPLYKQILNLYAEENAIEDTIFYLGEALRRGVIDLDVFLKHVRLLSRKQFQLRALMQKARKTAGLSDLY

| Substance | release of HIV-1 from transfected 293T cells | release of HIV-1 from transfected 293T cells, repeated experiments [% inhibition] |
| --- | --- | --- |
| Vps28 mutant with deletion of the N-terminal 27 amino acids, C-terminal Flag tag (from UniProt Q9UK41 28-221) | 72 % reduction |  |
| Vps28 mutant with deletion of amino acids 126 to 167, C-terminal Flag tag (from UniProt Q9UK41 1-125; Q9UK41 168-221) | 63 % inhibition |  |
| Vps28ΔC, C-terminal 43-amino acid deletion mutant of Vps28, C-terminal Flag tag (from UniProt Q9UK41 1-178) | 67 % reduction | 53 to 75 |

— patent publication US8021833
